# Publication PMC4072508, “Genome-Wide Prediction and Validation of Peptides That Bind Human Prosurvival Bcl-2 Proteins” (PLoS Computational Biology, 2014)
# T1: Mcl-1, Q07820
# T1 chain: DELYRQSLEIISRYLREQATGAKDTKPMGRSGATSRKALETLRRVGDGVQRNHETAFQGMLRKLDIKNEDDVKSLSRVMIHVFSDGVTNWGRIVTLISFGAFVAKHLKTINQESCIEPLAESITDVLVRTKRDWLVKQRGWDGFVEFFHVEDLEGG
# T2: Bfl-1, Q16548
# T2 chain: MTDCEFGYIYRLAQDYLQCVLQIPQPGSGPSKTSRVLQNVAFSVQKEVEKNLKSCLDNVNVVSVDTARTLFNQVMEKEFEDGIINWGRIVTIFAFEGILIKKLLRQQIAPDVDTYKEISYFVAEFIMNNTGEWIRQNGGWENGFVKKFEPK
# Target: T1, Mcl-1, Q07820
# Assay: peptide SPOT array, c-Myc-tagged receptor at 1 uM or 100 nM, anti-c-Myc-Cy3
row,Binder,SPOT signal as a fraction of Bim BH3's signal on the same receptor and array
1,EQWAREIGAQLRRMLDDLNAQYERRR,0.11
2,PALLVHWAKCLQKMGRGLNSSYDQQE,0.51
3,ISSYMVLAPVFGYLLDRYNRKYLMCG [SPNS1],0.73
4,VTLLSEVEKMLSNFLDCVQYKEIVKN [SYNE1],0.06
5,AIILCNVCGNLCTDLDRFLHLHRRTK [MYCBP2],0.51
6,SDIRDDISEQDRHVGRTVRGHPRKKL [TMEM184C],0.13
7,SHFVACMTAIDNQMGDQHYSFYIETF [DOCK2],0.05
8,TAAAAYRGAHLRGRLRTVYNTFRAAA [XXXX],1.64
9,PALLVHWAKCDQKMGRGLNSSYDQQE,0.41
10,WVKSIRICTPDGKLGDSCHPLTRKVP [PROK2],0.75
11,HTALENCASLDCIRADELQEALTSHC [MYO3A],0.03
12,KLALEQRCRELRARLRRLEETLPRRI [KIF19],0.72
13,EQWAREIGAQDRRMADDLNAQYERRR,0.07
14,QAGPVSSGLALRKLLDRVQLLNLLVT [CCDC57],0.42
15,WTLFVYTKGNDRMIGDDLVNSYHLLL [RBL1],0.07

# Results, then the binder that gave them:
row,SPOT signal as a fraction of Bim BH3's signal on the same receptor and array,Binder
1,0.03,KIETTPESRYDAQIGDSVSLTCSTTG [VCAM1]
2,0.05,SKEVAILCSFLLGLLDSCFNTQLLSI [MFSD11]
3,0.04,TSRINEVQVNLSLLLDDLLLPAQSTL [SPHKAP]
4,0.01,GVMTQEVGQLDQDMGDDVYQQYRSLT [HUWE1]
5,0.09,SQGKHGFTMAMNAFGDMTNEEFRQMM [CTSL2]
6,0.91,TAGLRPGARLLRVCGQTLPSLRPEAA [SIPA1]
7,0.08,LLDFFMVSILFSKLLDLLHKLQFVLT [PCNXL2]
8,1.04,RLRQLGVAKKFGVLSDNFKGKRIVLV [PPAT]
9,0.21,QASREAGAAALRNVAQRLFENYQTQS [CCDC68]
10,0.04,SQEPLEKAQLLALVLDQLIQSHHYAA [MCF2L2]

# Target: T2, Bfl-1, Q16548
# Assay: as above
row,Binder,SPOT signal as a fraction of Bim BH3's signal on the same receptor and array
1,EQWAREIGAQLRRMLDDLNAQYERRR,0.09
2,PALLVHWAKCLQKMGRGLNSSYDQQE,0.47
3,ISSYMVLAPVFGYLLDRYNRKYLMCG [SPNS1],0.78
4,VTLLSEVEKMLSNFLDCVQYKEIVKN [SYNE1],0.06
5,AIILCNVCGNLCTDLDRFLHLHRRTK [MYCBP2],0.28
6,SDIRDDISEQDRHVGRTVRGHPRKKL [TMEM184C],0.14
7,SHFVACMTAIDNQMGDQHYSFYIETF [DOCK2],0.05
8,TAAAAYRGAHLRGRLRTVYNTFRAAA [XXXX],1.55
9,PALLVHWAKCDQKMGRGLNSSYDQQE,0.26
10,WVKSIRICTPDGKLGDSCHPLTRKVP [PROK2],0.47
11,HTALENCASLDCIRADELQEALTSHC [MYO3A],0.03
12,KLALEQRCRELRARLRRLEETLPRRI [KIF19],1.04
13,EQWAREIGAQDRRMADDLNAQYERRR,0.02
14,QAGPVSSGLALRKLLDRVQLLNLLVT [CCDC57],0.34
15,WTLFVYTKGNDRMIGDDLVNSYHLLL [RBL1],0.05

# Further lines, results first:
row,SPOT signal as a fraction of Bim BH3's signal on the same receptor and array,Binder
1,0.03,KIETTPESRYDAQIGDSVSLTCSTTG [VCAM1]
2,0.04,SKEVAILCSFLLGLLDSCFNTQLLSI [MFSD11]
3,0.03,TSRINEVQVNLSLLLDDLLLPAQSTL [SPHKAP]
4,0.01,GVMTQEVGQLDQDMGDDVYQQYRSLT [HUWE1]
5,0.08,SQGKHGFTMAMNAFGDMTNEEFRQMM [CTSL2]
6,0.8,TAGLRPGARLLRVCGQTLPSLRPEAA [SIPA1]
7,0.07,LLDFFMVSILFSKLLDLLHKLQFVLT [PCNXL2]
8,0.64,RLRQLGVAKKFGVLSDNFKGKRIVLV [PPAT]
9,0.18,QASREAGAAALRNVAQRLFENYQTQS [CCDC68]
10,0.03,SQEPLEKAQLLALVLDQLIQSHHYAA [MCF2L2]

# Target: Bcl-xL, Q07817
# Assay: as above
# Sequence of Bcl-xL, Q07817 (Q07817 1-209): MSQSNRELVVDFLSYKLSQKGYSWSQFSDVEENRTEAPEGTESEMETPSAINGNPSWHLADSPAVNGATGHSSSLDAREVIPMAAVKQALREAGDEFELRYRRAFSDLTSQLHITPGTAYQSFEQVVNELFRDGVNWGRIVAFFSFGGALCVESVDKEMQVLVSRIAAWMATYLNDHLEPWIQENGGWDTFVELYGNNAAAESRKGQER
row,Binder,SPOT signal as a fraction of Bim BH3's signal on the same receptor and array
1,EQWAREIGAQLRRMLDDLNAQYERRR,0.19
2,PALLVHWAKCLQKMGRGLNSSYDQQE,0.89
3,ISSYMVLAPVFGYLLDRYNRKYLMCG [SPNS1],1.11
4,VTLLSEVEKMLSNFLDCVQYKEIVKN [SYNE1],0.11
5,AIILCNVCGNLCTDLDRFLHLHRRTK [MYCBP2],0.51
6,SDIRDDISEQDRHVGRTVRGHPRKKL [TMEM184C],0.45
7,SHFVACMTAIDNQMGDQHYSFYIETF [DOCK2],0.08
8,TAAAAYRGAHLRGRLRTVYNTFRAAA [XXXX],2.37
9,PALLVHWAKCDQKMGRGLNSSYDQQE,0.38
10,WVKSIRICTPDGKLGDSCHPLTRKVP [PROK2],1.01
11,HTALENCASLDCIRADELQEALTSHC [MYO3A],0.05
12,KLALEQRCRELRARLRRLEETLPRRI [KIF19],1.14
13,EQWAREIGAQDRRMADDLNAQYERRR,0.05
14,QAGPVSSGLALRKLLDRVQLLNLLVT [CCDC57],0.74
15,WTLFVYTKGNDRMIGDDLVNSYHLLL [RBL1],0.08

# Second part, the binder after the results:
row,SPOT signal as a fraction of Bim BH3's signal on the same receptor and array,Binder
1,0.05,KIETTPESRYDAQIGDSVSLTCSTTG [VCAM1]
2,0.09,SKEVAILCSFLLGLLDSCFNTQLLSI [MFSD11]
3,0.05,TSRINEVQVNLSLLLDDLLLPAQSTL [SPHKAP]
4,0.02,GVMTQEVGQLDQDMGDDVYQQYRSLT [HUWE1]
5,0.08,SQGKHGFTMAMNAFGDMTNEEFRQMM [CTSL2]
6,1.22,TAGLRPGARLLRVCGQTLPSLRPEAA [SIPA1]
7,0.1,LLDFFMVSILFSKLLDLLHKLQFVLT [PCNXL2]
8,1.65,RLRQLGVAKKFGVLSDNFKGKRIVLV [PPAT]
9,0.36,QASREAGAAALRNVAQRLFENYQTQS [CCDC68]
10,0.06,SQEPLEKAQLLALVLDQLIQSHHYAA [MCF2L2]
